Numbering of substitutions follows the chain as printed. Values belong to the binder of their own block, whether it stands above or below them.
Experiments:
[1] = biological target: T1, human transferrin receptor (hTfR) fused to EGFP, on CHO cells (human, UniProt P02786 1-760); experiment: flow cytometry on CHO-hTfR-EGFP cells, 1 hr at 4 C, Alexa647 anti-hFc; apparent Kd, mean ± SEM of 3 experiments
T1 construct: whole, on cells; also called human TfR; CHO-hTfR-EGFP; not shown: EGFP from pEGFP-C1 vector, fused to the N-terminal (intracellular) end of hTfR
Description: (§1) FIGS. 8A-8B: Apparent Kd determination of VHH-Fcs and Fc-VHHs on hTfR- and mTfR-expressing CHO cell lines. (A) CHO-hTfR-EGFP and CHO-mTfR-EGFP cells were incubated 1 hr at 4° C. with various concentrations of VHH-Fcs or Fc-VHHs, detected with an Alexa647-conjugated anti-hFc antibody (1/400). Measurements were performed using flow cytometry. The ratio of fluorescence intensity for each point was normalized with the corresponding EGFP signal (receptor expression) and gave rise to the arbitrary unit. Data are presented as mean±SEM of 3 independent experiments. (B) Characteristics of selected VHH-Fcs and Fc-VHHs: Molecular Weight (Da); Apparent Kd on human TfR (nM); Apparent Kd on mouse TfR (nM). Data are presented as mean±SEM of 3 independent experiments.
(§2) The binding properties of VHH-Fc and Fc-VHH fusion proteins with an affinity for the TfR were tested in flow cytometry experiments, and apparent affinity (K_{d app}) were determined. All experiments were performed in 96 well plates using 2-3×10⁵ cells/well, at 4° C. with shaking. […] After washes, cells were incubated for 1 hr with an Alexa647-conjugated anti-hFc antibody (Jackson ImmunoResearch). After 3 last washes and cells resuspension in PBS, fluorescence was immediately measured using a MACSQuant flow cytometer (Miltenyi), and results were analyzed with the MACSQuant software. […] The VHH-Fc and Fc-VHH K_{d app} were calculated using GraphPad Prism software (FIG. 8-B).

[2] = biological target: T2, mouse transferrin receptor (mTfR) fused to EGFP, on CHO cells (mouse, UniProt Q62351 1-763); experiment: flow cytometry on CHO-mTfR-EGFP cells, 1 hr at 4 C, Alexa647 anti-hFc; apparent Kd, mean ± SEM of 3 experiments
T2 construct: whole, on cells; also called mouse TfR; CHO-mTfR-EGFP; not shown: EGFP
Description: as §1, §2

[3] = biological target: T1, human transferrin receptor (hTfR) fused …; experiment: apparent Kd, cell-based assay
[4] = biological target: T1, human transferrin receptor (hTfR) fused …; experiment: apparent Kd, flow cytometry, CHO cells
Description: All experiments were performed in 96 well plates using 2×10⁵ cells/well, at 4° C. with shaking. CHO cell lines stably expressing the hTfR or the mTfR fused to EGFP or CHO WT cells were saturated with PBS/BSA 2% solution during 30 min to avoid non-specific binding, followed by incubation with purified VHHs at concentrations ranging from 50 μM to 5 μM for 1 hr. After one wash in PBS/BSA 2%, cells were incubated for 1 hr with an anti-6His tag antibody (mouse), washed twice with PBS/BSA 2%, and incubated for 45 min with an Alexa647-conjugated anti-mouse secondary antibody. After two last washes in PBS/BSA 2%, cells were fixed by incubation for 15 min with PBS/PFA 2%, washed once with PBS and finally resuspended in PBS and stored at 4° C. Fluorescence levels were assessed using an Attune NxT Flow Cytometer (Thermo Fisher Scientific). […] No labeling of the CHO WT control cells was detected with all the tested VHHs (not shown). The VHH K_{d app} were calculated using GraphPad Prism software (FIG. 11-B; 12-B).

[5] = biological target: T3, mouse TfR ectodomain fused to a mouse IgG1 Fc fragment (mouse, UniProt Q62351 89-763); experiment: SPR, kinetic
T3 construct: extracellular domain; not shown: mouse IgG1 Fc fragment
Method in brief: (§3)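 TfR–mouse Fc fusions, produced in-house, captured on HC 1500M or CM5 chips either directly or via immobilized anti-mouse IgG. VHHs injected in single-cycle or multiple-cycle kinetic mode on Biacore T200.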

[6] = biological target: T4, rhesus monkey TfR ectodomain fused to a mouse IgG1 Fc fragment (rhesus monkey, UniProt I0FKY7 89-760); experiment: SPR, kinetic
T4 construct: extracellular domain; not shown: mouse IgG1 Fc fragment
Method in brief: as §3

[7] = biological target: T5, human TfR ectodomain fused to a mouse IgG1 Fc fragment (human, UniProt P02786 89-760); experiment: SPR, kinetic
T5 construct: extracellular domain; ectodomain fused to the N-terminal end of the Fc, made in-house; not shown: mouse IgG1 Fc fragment
Method in brief: as §3

[8] = biological target: T2, mouse transferrin receptor (mTfR) fused …; experiment: apparent Kd, flow cytometry, CHO cells
Method in brief: (§4)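 CHO cells expressing TfR-EGFP fusions, blocked in PBS/BSA 2%, then incubated with increasing VHH concentrations for 1 hr at 4° C. Bound VHH detected via anti-6His antibody and Alexa647 secondary, cells PFA-fixed, read by flow cytometry. Apparent Kd from nonlinear fit.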

[9] = biological target: T6, rhesus monkey transferrin receptor (rhTfR) fused to EGFP, on CHO cells (rhesus monkey); experiment: apparent Kd, flow cytometry, CHO cells
T6 construct: whole, on cells; also called rhesus monkey TfR
Method in brief: as §4

[10] = biological target: T1, human transferrin receptor (hTfR) fused …; experiment: apparent Kd, flow cytometry, CHO cells; remark: listed apart in the source
Method in brief: as §4

[11] = biological target: T1, human transferrin receptor (hTfR) fused …; experiment: flow cytometry on CHO-hTfR-EGFP cells, 1 hr at 4 C, anti-6His + Alexa647 anti-mouse; ratio to background fluorescence
Description: FIGS. 15A-15H: In vitro gene silencing activity of VHH-siGFPst1 bioconjugates. […] CHO-hTfR-EGFP cells were incubated 1 hr at 4° C. with various concentrations of the indicated compounds. Detection of VHHs was performed using a primary mouse anti-6His (1/1000) and an Alexa647-conjugated anti-mouse secondary antibody (1/400). Measurements of cell-surface signal associated to VHH were performed using flow cytometry. The results are expressed as the ratio of Alexa647-associated fluorescence intensity of test compounds to that of background fluorescence. […] The total fluorescence associated to the EGFP protein was then quantified using flow cytometry and rationalized to that of untreated (control) cells (set at 100%) *** p≤0.001. […] The total fluorescence associated with the EGFP protein was then quantified using flow cytometry and rationalized to that of untreated (control) cells (set at 100%). […] CHO-hTfR-EGFP cells were incubated with the indicated compounds at 1 μM during 120 hrs at 37° C. Data were processed and analyzed as described in (B). *** p≤0.001 vs. untreated cells. […] The total fluorescence associated with the EGFP protein was then quantified using flow cytometry and rationalized to that of untreated (control) cells (set at 100%).

[12] = biological target: T7, murine TfR expressed by murine neuroblastoma Neuro-2a cells (mouse, UniProt Q62351 1-763); experiment: competition with the fluorescent reference VHH on Neuro-2a cells as in FIG. 25; Ki/app on mTfR, free VHH
T7 construct: whole, on cells; also called mTfR (N2a cells)
Description: (§5) The binding of VHH-Oligo and VHH-hFc-Oligo conjugates to mTfR was evaluated using a competition assay on living cells expressing the receptor of interest, namely murine neuroblastoma Neuro-2a cells (N2a). N2a cells were grown in Dulbecco's Modified Eagle Medium (DMEM) GlutaMAX supplemented with 10% v/v FBS in 5% CO₂ at 37° C. Cells were seeded two days before experiments in 96-well plates at a density of 50.000 cells/well. […] Resuspended cells were transferred in a 96-deepwell plate (V-bottom) containing 1% fetal bovine serum (FBS)/0.02% sodium azide in phosphate-buffered saline (PBS) and then centrifuged for 5 min at 2000 rpm at 4° C. After removing the supernatant, 5 mM EDTA in D-PBS and 4% paraformaldehyde (PFA) (v/v 1:1) were added into wells to fix cells for 15 min at room temperature. PFA was removed by centrifugation (5 min, 3000 rpm, 4° C.) and cells were resuspended with 5 mM EDTA in D-PBS. Then the cellular A680-associated fluorescence signal was quantified using an Attune™ NxT flow cytometer (Thermo Fisher Scientific) equipped with Attune™ NxT v3.1.2. Experimental data (experimental triplicates) were fitted with GraphPad Prism® software using a nonlinear fit to determine the apparent Ki inhibition constants.

[13] = biological target: T3, mouse TfR ectodomain fused to a mouse …; experiment: SPR, at equilibrium
Method in brief: as §3

[14] = biological target: T7, murine TfR expressed by murine …; experiment: competition with C5-Alexa680 (100 nM) on living Neuro-2a cells, 3 hrs at 37 C, flow cytometry; Ki/app, mean ± SD
Description: as §5

T7 sequence (Q62351 whole entry): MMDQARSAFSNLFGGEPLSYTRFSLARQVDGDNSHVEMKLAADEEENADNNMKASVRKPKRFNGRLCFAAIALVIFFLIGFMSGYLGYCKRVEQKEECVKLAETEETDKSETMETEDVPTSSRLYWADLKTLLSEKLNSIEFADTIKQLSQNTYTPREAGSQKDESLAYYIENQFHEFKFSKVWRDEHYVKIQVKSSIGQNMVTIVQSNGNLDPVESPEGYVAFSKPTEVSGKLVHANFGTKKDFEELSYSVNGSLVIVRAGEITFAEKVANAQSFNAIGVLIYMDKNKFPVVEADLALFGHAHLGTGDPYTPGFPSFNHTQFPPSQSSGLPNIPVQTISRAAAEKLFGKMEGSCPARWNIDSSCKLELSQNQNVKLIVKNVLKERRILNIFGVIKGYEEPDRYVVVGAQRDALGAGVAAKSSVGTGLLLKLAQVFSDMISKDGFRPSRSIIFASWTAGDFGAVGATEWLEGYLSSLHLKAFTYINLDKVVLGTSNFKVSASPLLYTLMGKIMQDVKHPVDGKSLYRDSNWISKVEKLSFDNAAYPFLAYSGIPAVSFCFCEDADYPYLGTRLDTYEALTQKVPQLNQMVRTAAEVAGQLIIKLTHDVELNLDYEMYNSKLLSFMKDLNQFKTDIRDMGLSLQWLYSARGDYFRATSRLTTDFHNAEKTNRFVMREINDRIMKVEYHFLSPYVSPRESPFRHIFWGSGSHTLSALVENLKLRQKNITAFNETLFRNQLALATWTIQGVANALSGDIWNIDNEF
T2 sequence (Q62351 whole entry, the tested form may be a part): as the sequence (Q62351 whole entry) above
T1 sequence (P02786 whole entry, the tested form may be a part): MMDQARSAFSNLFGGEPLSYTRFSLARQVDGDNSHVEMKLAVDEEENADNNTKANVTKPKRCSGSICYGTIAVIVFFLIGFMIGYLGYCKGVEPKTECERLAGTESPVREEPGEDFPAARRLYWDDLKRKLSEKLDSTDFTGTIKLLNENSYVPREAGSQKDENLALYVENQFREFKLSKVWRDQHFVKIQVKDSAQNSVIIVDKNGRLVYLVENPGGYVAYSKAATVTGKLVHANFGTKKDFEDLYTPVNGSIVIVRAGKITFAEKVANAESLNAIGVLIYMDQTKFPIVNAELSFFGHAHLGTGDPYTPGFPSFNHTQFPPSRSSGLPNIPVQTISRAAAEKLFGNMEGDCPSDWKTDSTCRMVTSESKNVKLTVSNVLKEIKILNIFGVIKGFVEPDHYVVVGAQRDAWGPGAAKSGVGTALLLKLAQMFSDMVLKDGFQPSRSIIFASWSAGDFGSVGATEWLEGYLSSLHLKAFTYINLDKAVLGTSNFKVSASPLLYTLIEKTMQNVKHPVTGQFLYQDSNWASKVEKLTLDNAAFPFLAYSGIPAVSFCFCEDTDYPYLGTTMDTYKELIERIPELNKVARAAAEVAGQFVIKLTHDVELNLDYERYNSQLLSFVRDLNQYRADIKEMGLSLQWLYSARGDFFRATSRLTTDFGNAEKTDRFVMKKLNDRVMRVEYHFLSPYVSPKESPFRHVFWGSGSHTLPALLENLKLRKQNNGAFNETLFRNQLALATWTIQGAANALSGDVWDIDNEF
T5 sequence (P02786 89-760): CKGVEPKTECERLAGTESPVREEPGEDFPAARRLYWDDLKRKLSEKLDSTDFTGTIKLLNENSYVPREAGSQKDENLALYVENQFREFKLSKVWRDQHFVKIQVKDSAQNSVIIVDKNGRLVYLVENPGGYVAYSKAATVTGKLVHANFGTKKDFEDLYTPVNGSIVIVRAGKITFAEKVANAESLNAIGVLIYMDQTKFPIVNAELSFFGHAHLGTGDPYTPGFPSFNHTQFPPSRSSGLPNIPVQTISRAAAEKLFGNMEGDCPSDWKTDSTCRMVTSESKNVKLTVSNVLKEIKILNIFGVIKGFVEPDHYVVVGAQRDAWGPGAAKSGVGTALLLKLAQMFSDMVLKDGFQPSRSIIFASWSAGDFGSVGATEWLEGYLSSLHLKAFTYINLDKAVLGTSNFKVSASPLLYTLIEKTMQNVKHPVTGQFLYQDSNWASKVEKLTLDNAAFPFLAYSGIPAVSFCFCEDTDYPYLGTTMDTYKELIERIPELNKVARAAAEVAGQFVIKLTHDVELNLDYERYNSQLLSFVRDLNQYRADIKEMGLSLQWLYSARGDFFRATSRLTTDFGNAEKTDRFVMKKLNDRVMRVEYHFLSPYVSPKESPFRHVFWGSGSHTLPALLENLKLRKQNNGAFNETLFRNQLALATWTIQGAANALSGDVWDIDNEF
T3 sequence (Q62351 89-763): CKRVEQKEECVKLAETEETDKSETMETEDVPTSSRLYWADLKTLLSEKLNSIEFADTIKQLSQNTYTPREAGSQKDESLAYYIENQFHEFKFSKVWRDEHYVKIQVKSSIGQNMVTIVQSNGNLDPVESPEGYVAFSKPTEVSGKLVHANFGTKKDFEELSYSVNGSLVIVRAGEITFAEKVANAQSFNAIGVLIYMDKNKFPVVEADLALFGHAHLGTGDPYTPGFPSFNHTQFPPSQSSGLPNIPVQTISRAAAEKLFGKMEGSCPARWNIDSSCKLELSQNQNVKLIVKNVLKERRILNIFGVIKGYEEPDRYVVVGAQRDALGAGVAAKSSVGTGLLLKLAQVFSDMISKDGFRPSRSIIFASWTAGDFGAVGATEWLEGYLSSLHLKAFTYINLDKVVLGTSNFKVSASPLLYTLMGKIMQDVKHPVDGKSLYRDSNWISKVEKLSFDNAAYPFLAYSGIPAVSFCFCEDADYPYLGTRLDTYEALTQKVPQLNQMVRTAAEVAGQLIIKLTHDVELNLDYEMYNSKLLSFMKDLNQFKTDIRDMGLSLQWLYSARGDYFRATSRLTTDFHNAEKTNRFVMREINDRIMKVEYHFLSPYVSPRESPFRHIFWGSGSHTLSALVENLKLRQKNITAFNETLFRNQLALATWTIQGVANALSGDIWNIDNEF

B1: Fc-VHH A (Fc fusion)
VHH: EVQLVESGGGVVQPGGSLKLSCVASGTDFSINFIRWYRQAPGKQREFVAGFTATGNTNYADSMKGRFTISRDNTKNAVYLQIDSLKPEDTAVYYCYMLDKWGQGTQVTVSS
modifications: Genetic fusion with the VHH at the C-terminus of a human IgG1 Fc. It forms a homodimer, so it is bivalent.
notes: not shown: Human IgG1 Fc of the pINFUSE-IgG1-Fc2 vector (InvivoGen), N-terminal to the VHH, and any junction or linker residues
Kd [1]: 1.3 nM | Kd [2]: 22 nM

B3: VHH A12 (C5^V12) (VHH)
VHH: B1 VHH with F51I
Kd [4]: 363 nM

B4: Fc-VHH B (Fc fusion)
VHH: EVQLVESGGGVVQPGGSLRLSCAASGEIFSINFMRWYRQAPGKQREWVAGFTRDGSTNYPDSAKGRFTISRDNAKNTVYLQIDSLKPEDTAVYYCYMLDTWGQGTQVTVSS
modifications: Genetic fusion with the VHH at the C-terminus of a human IgG1 Fc. It forms a homodimer, so it is bivalent.
notes: as for B1
Kd [1]: 1.5 nM | Kd [2]: 51 nM

B5: VHH B (B8) (VHH)
VHH: B4 VHH
Kd [5]: 27 nM | koff [5]: 0.0243 s⁻¹ | kon [5]: 1.23e+06 M⁻¹ s⁻¹ | Kd [6]: 0.0951 nM | koff [6]: 9.54e-05 s⁻¹ | kon [6]: 1e+06 M⁻¹ s⁻¹ | Kd [7]: 0.0559 nM | koff [7]: 3.06e-05 s⁻¹ | kon [7]: 677000 M⁻¹ s⁻¹ | Kd [8]: 7.5 nM | Kd [9]: 2.2 nM | Kd [10]: 1.7 nM | EC50 (read off the curve) [11]: ~4 nM | Ki [12]: 56.2 nM | Kd [13]: 37.5 nM | Ki [14]: 56.2 nM

Next, values leading:

Kd [3]: 16.8 nM
B2: C5h18-NT(8-13) (VHH)
VHH: B1 VHH with Q44G, R45L, M63V, T74A, A77T, V78L, I82M, D83N, K86R

Ki [14]: 60.9 nM
B6: B8-MALAT1-ASO (VHH, not shown: small tags and cut ends)
VHH: B4 VHH
modifications: MALAT1 gapmer antisense oligonucleotide linked to the VHH
notes: also called VHH-MALAT1-ASO wherein VHH is B8

Kd [1]: 1.2 nM | Kd [2]: 0.61 nM
B7: VHH B-Fc (Fc fusion)
chain: B4 VHH
notes: not shown: human IgG1 Fc fragment of the pINFUSE-IgG1-Fc2 vector (InvivoGen)

Kd [3]: 1860 nM
B8: C12b-NT(8-13) (VHH)
VHH: QVQLVQSGGGLVQPGGSLRLSCAASGFTFSAYAMSWVRQAPGKGRELVASISRTGDGTYYADGMKGRFTISRDNAENTVSLQINSLKPEDTAIYYCGAGINPTKYWGQGTQVTVSS

From patent US20230414780A1 (VECT HORUS, published 2023)
